Values belong to the binder of their own block, whether it stands above or below them. Where no end group is shown, it is not given here.
How the values were obtained:
Details in all cases: both partners purified
[1] = biological target: N-terminal bromodomain of human BRD4 (residues 44–168) (human, UniProt O60885 44-168); assay: ITC; 100 µM protein in the cell, 1 mM acetylated histone NT peptide in the syringe; 25 °C; 10 mM HEPES-NaOH pH 7.4, 150 mM NaCl; single binding site model
[2] = biological target: T1, K12/K16-acetylated human histone H4 (as it stands in H4acNuc) (human, UniProt P62805 1-103, acetyl-lysine at K12 and K16); assay: cryo-EM structure; p300_(BRPHZT) or CBP_(BRPHZT), acetyl-CoA and nucleosome mixed 4:6:1 in 20 mM HEPES-NaOH pH 7.2, 150 mM NaCl, 1 μM ZnCl2, 1 mM TCEP; purified and cross-linked by GraFix (glutaraldehyde)
T1 construct: human histone H4 ORF with the codons of K12 and K16 replaced by TAG for acetyllysine; The H4 chain of m6; met p300/CBP only inside the nucleosome; also called H4K12ac/K16ac; H4NTac; source: cell-free synthesis (E. coli S30 extract, genetic code reprogramming), purified, assembled into H4acNuc

[3] = biological target: T2, human p300BRP (residues 1048–1282), wild type (human, UniProt Q09472 1048-1282, fluorescently labeled with a His tag Labeling Kit (microscale thermophoresis only)); assay: ITC; 100 µM protein in the cell, 1 mM acetylated histone NT peptide in the syringe; 25 °C; 10 mM HEPES-NaOH pH 7.4, 150 mM NaCl; single binding site model
T2 sequence (looked up): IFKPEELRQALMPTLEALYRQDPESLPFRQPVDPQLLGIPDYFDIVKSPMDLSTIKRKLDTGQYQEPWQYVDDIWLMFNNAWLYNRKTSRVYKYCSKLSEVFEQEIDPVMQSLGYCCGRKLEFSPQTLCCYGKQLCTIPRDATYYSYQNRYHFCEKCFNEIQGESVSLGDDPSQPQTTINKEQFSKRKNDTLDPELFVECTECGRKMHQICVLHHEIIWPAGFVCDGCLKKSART

B1: human p300_(BRPHZT) (residues 1048–1836) (domain or fragment)
chain: IFKPEELRQALMPTLEALYRQDPESLPFRQPVDPQLLGIPDYFDIVKSPMDLSTIKRKLDTGQYQEPWQYVDDIWLMFNNAWLYNRKTSRVYKYCSKLSEVFEQEIDPVMQSLGYCCGRKLEFSPQTLCCYGKQLCTIPRDATYYSYQNRYHFCEKCFNEIQGESVSLGDDPSQPQTTINKEQFSKRKNDTLDPELFVECTECGRKMHQICVLHHEIIWPAGFVCDGCLKKSARTRKENKFSAKRLPSTRLGTFLENRVNDFLRRQNHPESGEVTVRVVHASDKTVEVKPGMKARFVDSGEMAESFPYRTKALFAFEEIDGVDLCFFGMHVQEYGSDCPPPNQRRVYISYLDSVHFFRPKCLRTAVYHEILIGYLEYVKKLGYTTGHIWACPPSEGDDYIFHCHPPDQKIPKPKRLQEWYKKMLDKAVSERIVHDYKDIFKQATEDRLTSAKELPYFEGDFWPNVLEESIKELEQEEEERKREENTSNESTDVTKGDSKNAKKKNNKKTSKNKSSLSRGNKKKPGMPNVSNDLSQKLYATMEKHKEVFFVIRLIAGPAANSLPPIVDPDPLIPCDLMDGRDAFLTLARDKHLEFSSLRRAQWSTMCMLVELHTQSQDRFVYTCNECKHHVETRWHCTVCEDYDLCITCYNTKNHDHKMEKLGLGLDDESNNQQAAATQSPGDSRRLSIQRCIQSLVHACQCRNANCSLPSCQKMKRVVQHTKGCKRKTNGGCPICKQLIALCCYHAKHCQENKCPVPFCLNIKQKLRQQQLQHRLQQAQMLRRRMASMQ
modifications: autoacetylated form containing K1542ac, K1546ac, K1549ac, K1550ac, K1551ac, K1554ac, K1555ac, K1558ac and K1560ac
binding result [2]: binds

B2: human CBP_(BRPHZT) (residues 1084–1873) (domain or fragment)
chain: IFKPEELRQALMPTLEALYRQDPESLPFRQPVDPQLLGIPDYFDIVKNPMDLSTIKRKLDTGQYQEPWQYVDDVWLMFNNAWLYNRKTSRVYKFCSKLAEVFEQEIDPVMQSLGYCCGRKYEFSPQTLCCYGKQLCTIPRDAAYYSYQNRYHFCEKCFTEIQGENVTLGDDPSQPQTTISKDQFEKKKNDTLDPEPFVDCKECGRKMHQICVLHYDIIWPSGFVCDNCLKKTGRPRKENKFSAKRLQTTRLGNHLEDRVNKFLRRQNHPEAGEVFVRVVASSDKTVEVKPGMKSRFVDSGEMSESFPYRTKALFAFEEIDGVDVCFFGMHVQEYGSDCPPPNTRRVYISYLDSIHFFRPRCLRTAVYHEILIGYLEYVKKLGYVTGHIWACPPSEGDDYIFHCHPPDQKIPKPKRLQEWYKKMLDKAFAERIIHDYKDIFKQATEDRLTSAKELPYFEGDFWPNVLEESIKELEQEEEERKKEESTAASETTEGSQGDSKNAKKKNNKKTNKNKSSISRANKKKPSMPNVSNDLSQKLYATMEKHKEVFFVIHLHAGPVINTLPPIVDPDPLLSCDLMDGRDAFLTLARDKHWEFSSLRRSKWSTLCMLVELHTQGQDRFVYTCNECKHHVETRWHCTVCEDYDLCINCYNTKSHAHKMVKWGLGLDDEGSSQGEPQSKSPQESRRLSIQRCIQSLVHACQCRNANCSLPSCQKMKRVVQHTKGCKRKTNGGCPVCKQLIALCCYHAKHCQENKCPVPFCLNIKHKLRQQQIQHRLQQAQLMRRRMATMN
binding result [2]: binds

More lines, now with the values ahead:

Kd [1]: 430 ± 5 µM
Binder: PAPKK(Ac)GSK(Ac)KAVTK [di-acetylated H2B peptide K12ac/K15ac]

Kd [3]: 200 ± 30 µM
Binder: KAVTK(Ac)AQK(Ac)KDGK [di-acetylated H2B peptide K20ac/K23ac]
